Residue numbers refer to the chain shown, from its start.
B1: YK-RSV-032 (protein)
chain: QNITEEFYCSTCSAVSKGYLGALRTGWYTSVITIELSNIKENKCNGTDAKVKLIKQELDKYKNAVTDLQLLMQSTPATGSGSAIASGVAVSKVLHLEGEVNKIKSALLSTNKAVVSLSNGVSVLTFKVLDLKNYIDKQLLPILNKQSCSIPNIETVIEFQQKNNRLLEITREFSVNAGVTTPVSTYMLTNSELLSLINDMPITNDQKKLMSNNVQIVRQQSYSIMSIIKEEVLAYVVQLPLYGVIDTPCWKLHTSPLCTTNTKEGSNICLTRTDRGWYCDNAGSVSFFPQAETCKVQSNRVFCDTMNSRTLPSEVNLCNVDIFNPKYDCKIMTSKTDVSSSVITSLGAIVSCYGKTKCTASNKNRGIIKTFSNGCDYVSNKGVDTVSVGNTLYYVNKQEGQSLYVCGEPIINFYDPLVFPSDEFDASISQVNEKINQSLAFIRKSDELLHNVNAGKSTTNIMITTIIIVIIVILLSLIAVGLLLY
B2: YK-RSV-002 (protein)
chain: B1 chain with C9Q, T29H, A85C, S91C, L143V, S226C, Y394C, C406K, D422S
B3: YK-RSV-035 (protein)
chain: B1 chain with N2C, C9Q, Q398C, C406K
B4: YK-RSV-034 (protein)
chain: B1 chain with Q1C, C9Q, K397C, C406K
B5: YK-RSV-040 (protein)
chain: B1 chain with C9Q, T29C, A89C, C406K
B6: YK-RSV-045 (protein)
chain: B1 chain with C9Q, T75C, V236C, C406K
B7: YK-RSV-059 (protein)
chain: B1 chain with C9Q, N261C, C406K, G407C
B8: YK-RSV-037 (protein)
chain: B1 chain with C9Q, Y28C, A89C, C406K
B9: YK-RSV-052 (protein)
chain: B1 chain with C9Q, S82C, L241C, C406K
B10: YK-RSV-058 (protein)
chain: B1 chain with C9Q, S266C, C406K, G407C
B11: YK-RSV-046 (protein)
chain: QNITEEFYQSTCSAVSKGYLGALRTGWYTSVITIELSNIKENKCNGTDAKVKLIKQELDKYKNAVTDLQLLMQSTPATGSGSFCGFLLGVGSAIASGVAVSKVLHLEGEVNKIKSALLSTNKAVVSLSNGVSVLTFKVLDLKNYIDKQLLPILNKQSCSIPNIETVIEFQQKNNRLLEITREFSVNAGVTTPVSTYMLTNSELLSLINDMPITNDQKKLMSNNVQIVRQQSYSIMSIIKEEVLAYVVQLPLYGVIDTPCWKLHTSPLCTTNTKEGSNICLTRCDRGWYCDNAGSVSFFPQAETCKVQSNRVFCDTMNSRTLPSEVNLCNVDIFNPKYDCKIMTSKTDVSSSVITSLGAIVSCYGKTKCTASNKNRGIIKTFSNGCDYVSNKGVDTVSVGNTLYYVNKQEGQSLYVKGEPIINFYDPLVFPSDEFDASISQVNEKINQSLAFIRKSDELLHNVNAGKSTTNIMITTIIIVIIVILLSLIAVGLLLY
B12: YK-RSV-051 (protein)
chain: B11 chain with C84L, F86C, C283T, T315C

system: RSV F antibody (11A9); experiment: Binding of epitope II of RSV F antigen mutants by flow cytometry; conditions: epitope II, antibody 11A9
In short: (§1)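 293T cells were transfected with mRNA-LNP (300 ng mRNA) encoding the RSV F mutants and harvested after 16 h. Cells were stained with fluorescent 3C12 (pre-F-specific epitope Φ) or 11A9 (epitope II, pre-F and post-F) for 2 h at 4 °C in the dark, then washed and read by flow cytometry on 1×10^4 cells per measurement.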

| Molecule | RSV F antibody (11A9) Epitope II (%) binding rate [%] |
| --- | --- |
| B1 | 94.8 |
| B2 | 93.5 |
| B3 | 87.1 |
| B4 | 91.0 |
| B5 | 92.0 |
| B6 | 86.0 |
| B7 | 89.8 |
| B8 | 86.9 |
| B9 | 93.7 |
| B10 | 88.7 |
| B11 | 89.8 |
| B12 | 87.1 |

system: RSV pre-F antibody (3C12); experiment: not given; type: physicochemical; conditions: high osmotic pressure 3000 mM, room temperature, 60 min; ELISA binding to 3C12
In short: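 RSV F mRNA-vaccine mutants stress-treated: 4° C. for one week, 50° C. for 60 min, low or high osmotic pressure at room temperature for 60 min, acid or base at room temperature for 60 min. Binding to 3C12 (epitope Φ) then measured by ELISA against pre-F trimer standard, HRP anti-human IgG, OD 450/630 nm.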

| Molecule | Stress resistance parameter, Osmotic pressure (mM) 3000 |
| --- | --- |
| B1 | 0.37 ± 0.02 |
| B2 | 0.44 ± 0.13 |
| B3 | 0.21 ± 0.06 |
| B4 | 0.34 ± 0.15 |
| B5 | 0.61 ± 0.09 |
| B6 | 0.46 ± 0.05 |
| B7 | 0.44 ± 0.03 |
| B8 | 0.21 ± 0.03 |
| B9 | 0.30 ± 0.06 |
| B10 | 0.50 ± 0.05 |
| B11 | 0.41 ± 0.02 |
| B12 | 0.44 ± 0.00 |

same assay, conditions: incubation at 50° C. for 60 min; ELISA binding to 3C12

| Molecule | Stress resistance parameter, Temperature (° C.) 50 |
| --- | --- |
| B1 | 0.78 ± 0.02 |
| B2 | 0.46 ± 0.06 |
| B3 | 0.39 ± 0.02 |
| B4 | 0.68 ± 0.07 |
| B5 | 0.91 ± 0.14 |
| B6 | 0.41 ± 0.03 |
| B7 | 0.74 ± 0.07 |
| B8 | 0.50 ± 0.06 |
| B9 | 0.69 ± 0.09 |
| B10 | 0.73 ± 0.09 |
| B11 | 0.63 ± 0.03 |
| B12 | 0.60 ± 0.08 |

same assay, conditions: low osmotic pressure 10 mM, room temperature, 60 min; ELISA binding to 3C12

| Molecule | Stress resistance parameter, Osmotic pressure (mM) 10 |
| --- | --- |
| B1 | 0.66 ± 0.14 |
| B2 | 0.84 ± 0.14 |
| B3 | 0.39 ± 0.05 |
| B4 | 0.84 ± 0.14 |
| B5 | 0.75 ± 0.13 |
| B6 | 0.57 ± 0.09 |
| B7 | 0.49 ± 0.02 |
| B8 | 0.54 ± 0.11 |
| B9 | 0.88 ± 0.21 |
| B10 | 0.60 ± 0.04 |
| B11 | 0.46 ± 0.14 |
| B12 | 0.51 ± 0.13 |

same assay, conditions: pH 3.5, room temperature, 60 min; ELISA binding to 3C12

| Molecule | Stress resistance parameter, pH 3.5 |
| --- | --- |
| B1 | 1.01 ± 0.35 |
| B2 | 0.65 ± 0.08 |
| B3 | 0.57 ± 0.03 |
| B4 | 0.81 ± 0.09 |
| B5 | 0.93 ± 0.09 |
| B6 | 0.47 ± 0.09 |
| B7 | 0.73 ± 0.03 |
| B8 | 0.68 ± 0.10 |
| B9 | 0.80 ± 0.04 |
| B10 | 0.72 ± 0.03 |
| B11 | 0.83 ± 0.04 |
| B12 | 0.69 ± 0.14 |

same assay, conditions: pH 10, room temperature, 60 min; ELISA binding to 3C12

| Molecule | Stress resistance parameter, pH 10 |
| --- | --- |
| B1 | 0.98 ± 0.06 |
| B2 | 0.97 ± 0.14 |
| B3 | 0.82 ± 0.01 |
| B4 | 0.91 ± 0.04 |
| B5 | 1.00 ± 0.23 |
| B6 | 0.97 ± 0.07 |
| B7 | 0.82 ± 0.09 |
| B8 | 1.24 ± 0.11 |
| B9 | 1.22 ± 0.14 |
| B10 | 0.81 ± 0.05 |
| B11 | 1.03 ± 0.03 |
| B12 | 1.00 ± 0.17 |

same assay, conditions: storage at 4° C. for one week; ELISA binding to 3C12

| Molecule | Stress resistance parameter, Temperature (° C.) 4 |
| --- | --- |
| B1 | 0.34 ± 0.08 |
| B2 | 0.61 ± 0.11 |
| B3 | 0.31 ± 0.07 |
| B4 | 0.37 ± 0.07 |
| B5 | 0.38 ± 0.08 |
| B6 | 0.29 ± 0.02 |
| B7 | 0.52 ± 0.10 |
| B8 | 0.27 ± 0.07 |
| B9 | 0.42 ± 0.10 |
| B10 | 0.36 ± 0.07 |
| B11 | 0.24 ± 0.07 |
| B12 | 0.33 ± 0.05 |

system: RSV pre-F antibody (3C12); experiment: Binding of epitope Φ of RSV F antigen mutants by flow cytometry; conditions: flow cytometry; epitope Φ, antibody 3C12
In short: as §1

| Molecule | RSV pre-F antibody (3C12) Epitope Φ (%) binding rate [%] |
| --- | --- |
| B1 | 86.1 |
| B2 | 88.0 |
| B3 | 79.6 |
| B4 | 82.5 |
| B5 | 84.3 |
| B6 | 78.3 |
| B7 | 83.1 |
| B8 | 79.0 |
| B9 | 89.4 |
| B10 | 81.2 |
| B11 | 84.0 |
| B12 | 76.8 |

same assay, conditions: ratio of epitope Φ (3C12) to epitope II (11A9) binding rate

| Molecule | Φ/II (%) |
| --- | --- |
| B1 | 90.8 |
| B2 | 94.1 |
| B3 | 91.4 |
| B4 | 90.7 |
| B5 | 91.6 |
| B6 | 91.0 |
| B7 | 92.5 |
| B8 | 90.9 |
| B9 | 95.4 |
| B10 | 91.5 |
| B11 | 93.5 |
| B12 | 88.2 |

Source: patent publication US12514920B1, “Respiratory syncytial virus mRNA vaccine, and preparation method therefor and use thereof” (Hangzhou Tianlong Pharmaceutical Co., Ltd., priority 2024, dated 2026)
